The assay has as its target […]n, n = 5 (100-mer), non-glycosylated (human). The assay can be described thus: peptide ELISA, OD 492 nm; limit of the class, member by Table 2; reference: 20-mer. For orientation: ELISA stands for enzyme-linked immunosorbent assay.

Sequence of […]n, n = 5 (100-mer), non-glycosylated (human) (peptide, as listed by the source): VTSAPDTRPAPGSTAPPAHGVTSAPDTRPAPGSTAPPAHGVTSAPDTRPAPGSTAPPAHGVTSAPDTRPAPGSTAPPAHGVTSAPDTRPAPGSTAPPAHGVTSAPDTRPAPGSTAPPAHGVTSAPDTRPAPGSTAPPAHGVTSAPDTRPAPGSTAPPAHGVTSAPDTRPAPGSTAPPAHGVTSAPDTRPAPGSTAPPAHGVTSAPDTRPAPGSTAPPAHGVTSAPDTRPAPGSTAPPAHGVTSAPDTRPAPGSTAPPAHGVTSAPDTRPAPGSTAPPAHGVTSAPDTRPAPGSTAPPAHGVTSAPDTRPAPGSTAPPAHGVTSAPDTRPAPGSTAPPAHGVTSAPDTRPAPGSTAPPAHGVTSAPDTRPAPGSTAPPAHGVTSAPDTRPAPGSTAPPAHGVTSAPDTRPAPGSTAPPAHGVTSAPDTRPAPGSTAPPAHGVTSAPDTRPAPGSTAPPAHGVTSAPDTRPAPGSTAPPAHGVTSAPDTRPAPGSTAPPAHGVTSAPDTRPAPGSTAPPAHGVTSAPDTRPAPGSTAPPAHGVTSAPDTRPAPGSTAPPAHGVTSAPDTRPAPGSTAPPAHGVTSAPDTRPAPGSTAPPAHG

214D4 (antibody): the ratio of the optical density 100-mer/20-mer fell in the range of 1.5 to 3.

In the case of B27.29 (antibody), the ratio of the optical density 100-mer/20-mer was 1.5 to 3.

In the case of BC2 (antibody), the ratio of the optical density 100-mer/20-mer is over 3.

As for C595 (antibody), the ratio of the optical density 100-mer/20-mer was under 1.5.

Take E29 (antibody): the ratio of the optical density 100-mer/20-mer was 1.5 to 3.

The record behind these values is patent US20150010495A1.
